Results taken from patent US20220306707A1 (INDUSTRY UNIVERSITY COOPERATION FOUNDATION HANYANG …, published 2022).

Legend:
[1] = target: endogenous mouse NLRP3 (bone marrow-derived macrophages and splenocytes of C57BL/6 mice) (mouse, UniProt Q8R4B8 1-1033); assay: immunoprecipitation from LPS- and ATP-treated BMDMs (FIG. 4D)
[2] = target: T1, Flag-NLRP3 wild-type (WT), full-length, transfected into 293T cells (UniProt Q96P20 1-1036); assay: GST pulldown in transfected 293T cells (FIG. 3A)
T1 construct: also called wild-type (WT) NLRP3; not shown: Flag tag
T1 sequence (Q96P20 whole entry): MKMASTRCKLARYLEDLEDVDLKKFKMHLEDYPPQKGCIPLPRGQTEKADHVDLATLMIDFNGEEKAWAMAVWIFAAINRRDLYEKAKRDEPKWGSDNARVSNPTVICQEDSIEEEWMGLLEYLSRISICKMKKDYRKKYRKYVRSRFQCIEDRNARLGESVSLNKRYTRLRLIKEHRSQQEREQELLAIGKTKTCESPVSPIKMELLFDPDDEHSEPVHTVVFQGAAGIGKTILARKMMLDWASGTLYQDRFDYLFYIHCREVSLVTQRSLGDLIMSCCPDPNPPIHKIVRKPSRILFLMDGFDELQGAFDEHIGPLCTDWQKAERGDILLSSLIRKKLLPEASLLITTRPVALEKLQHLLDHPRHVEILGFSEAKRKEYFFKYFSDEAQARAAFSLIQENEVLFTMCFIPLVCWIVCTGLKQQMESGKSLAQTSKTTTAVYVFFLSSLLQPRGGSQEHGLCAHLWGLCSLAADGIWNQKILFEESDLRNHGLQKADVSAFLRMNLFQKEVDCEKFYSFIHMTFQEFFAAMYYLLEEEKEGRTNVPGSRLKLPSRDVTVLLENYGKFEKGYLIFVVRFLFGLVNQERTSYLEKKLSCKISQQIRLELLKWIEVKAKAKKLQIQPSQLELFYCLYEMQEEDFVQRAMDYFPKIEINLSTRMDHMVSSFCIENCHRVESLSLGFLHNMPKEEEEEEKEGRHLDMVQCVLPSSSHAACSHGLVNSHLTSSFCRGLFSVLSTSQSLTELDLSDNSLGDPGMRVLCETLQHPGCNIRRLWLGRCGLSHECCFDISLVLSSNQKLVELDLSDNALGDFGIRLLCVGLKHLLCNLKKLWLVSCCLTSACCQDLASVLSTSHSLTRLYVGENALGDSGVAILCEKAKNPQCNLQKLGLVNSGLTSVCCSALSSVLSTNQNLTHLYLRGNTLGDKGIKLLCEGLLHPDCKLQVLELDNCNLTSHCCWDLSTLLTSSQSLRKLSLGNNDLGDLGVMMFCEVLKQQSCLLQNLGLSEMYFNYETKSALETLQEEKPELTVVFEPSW

Sequence of endogenous mouse NLRP3 (bone marrow-derived macrophages and splenocytes of C57BL/6 mice) (Q8R4B8 whole entry): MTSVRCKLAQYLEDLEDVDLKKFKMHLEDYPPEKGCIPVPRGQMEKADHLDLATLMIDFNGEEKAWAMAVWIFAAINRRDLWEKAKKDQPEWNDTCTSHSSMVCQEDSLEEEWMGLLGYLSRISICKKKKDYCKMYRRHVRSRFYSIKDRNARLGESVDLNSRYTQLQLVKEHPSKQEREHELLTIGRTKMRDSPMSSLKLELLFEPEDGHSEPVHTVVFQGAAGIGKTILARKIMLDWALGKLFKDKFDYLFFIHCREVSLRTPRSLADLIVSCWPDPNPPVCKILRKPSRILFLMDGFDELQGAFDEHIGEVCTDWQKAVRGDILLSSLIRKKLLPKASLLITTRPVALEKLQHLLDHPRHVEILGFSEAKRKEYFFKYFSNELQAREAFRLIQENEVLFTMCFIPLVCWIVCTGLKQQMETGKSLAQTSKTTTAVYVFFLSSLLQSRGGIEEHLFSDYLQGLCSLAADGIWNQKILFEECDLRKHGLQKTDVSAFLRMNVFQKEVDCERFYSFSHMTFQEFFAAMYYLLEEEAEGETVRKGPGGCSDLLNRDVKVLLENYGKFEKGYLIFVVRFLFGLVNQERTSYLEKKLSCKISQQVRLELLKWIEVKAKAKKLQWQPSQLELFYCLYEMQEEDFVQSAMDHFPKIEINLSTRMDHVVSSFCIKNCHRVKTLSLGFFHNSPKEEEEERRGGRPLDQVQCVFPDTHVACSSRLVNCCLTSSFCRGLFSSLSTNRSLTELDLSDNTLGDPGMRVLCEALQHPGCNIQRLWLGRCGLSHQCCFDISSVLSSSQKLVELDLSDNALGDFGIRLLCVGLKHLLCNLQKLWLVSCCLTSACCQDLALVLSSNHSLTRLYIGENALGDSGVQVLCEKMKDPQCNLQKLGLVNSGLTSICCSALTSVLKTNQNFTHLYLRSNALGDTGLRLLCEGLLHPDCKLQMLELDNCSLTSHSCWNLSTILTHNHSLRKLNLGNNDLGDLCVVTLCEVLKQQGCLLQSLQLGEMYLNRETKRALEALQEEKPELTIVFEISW

Row | Binder | binding result [1] | binding result [2]
1 | recombinant GRA9C (residues 195-288) with N-terminal 6x His tag, purified from E. coli (other, also called rGRA9C; 6xHis-GRA9C) HHHHHHMSVDPQCIMTREVVAQKLAGWTDNTHTATAGTPKKLLISFPSPDHIKEMVKEGYLPDNALERVLAGDFEGFSRTQMCLVSGRNRTECAFAEGQE | binds | 
2 | recombinant GRA9C^Q200L (residues 195-288, Q200L) with N-terminal 6x His tag, purified from E. coli (other, also called rGRA9C^Q200L) HHHHHHMSVDPLCIMTREVVAQKLAGWTDNTHTATAGTPKKLLISFPSPDHIKEMVKEGYLPDNALERVLAGDFEGFSRTQMCLVSGRNRTECAFAEGQE | no binding | 
3 | GST-GRA9 C-terminal domain containing the Q200L mutation (other, also called GST-GRA9 C^Q200L; GST-GRA9 containing the Q200L mutation at the C-terminus) MSVDPLCIMTREVVAQKLAGWTDNTHTATAGTPKKLLISFPSPDHIKEMVKEGYLPDNALERVLAGDFEGFSRTQMCLVSGRNRTECAFAEGQE |  | no binding
